T1: Sec24d (lacking residues 1-266) (human, UniProt O94855 267-1032)
T1 sequence (looked up): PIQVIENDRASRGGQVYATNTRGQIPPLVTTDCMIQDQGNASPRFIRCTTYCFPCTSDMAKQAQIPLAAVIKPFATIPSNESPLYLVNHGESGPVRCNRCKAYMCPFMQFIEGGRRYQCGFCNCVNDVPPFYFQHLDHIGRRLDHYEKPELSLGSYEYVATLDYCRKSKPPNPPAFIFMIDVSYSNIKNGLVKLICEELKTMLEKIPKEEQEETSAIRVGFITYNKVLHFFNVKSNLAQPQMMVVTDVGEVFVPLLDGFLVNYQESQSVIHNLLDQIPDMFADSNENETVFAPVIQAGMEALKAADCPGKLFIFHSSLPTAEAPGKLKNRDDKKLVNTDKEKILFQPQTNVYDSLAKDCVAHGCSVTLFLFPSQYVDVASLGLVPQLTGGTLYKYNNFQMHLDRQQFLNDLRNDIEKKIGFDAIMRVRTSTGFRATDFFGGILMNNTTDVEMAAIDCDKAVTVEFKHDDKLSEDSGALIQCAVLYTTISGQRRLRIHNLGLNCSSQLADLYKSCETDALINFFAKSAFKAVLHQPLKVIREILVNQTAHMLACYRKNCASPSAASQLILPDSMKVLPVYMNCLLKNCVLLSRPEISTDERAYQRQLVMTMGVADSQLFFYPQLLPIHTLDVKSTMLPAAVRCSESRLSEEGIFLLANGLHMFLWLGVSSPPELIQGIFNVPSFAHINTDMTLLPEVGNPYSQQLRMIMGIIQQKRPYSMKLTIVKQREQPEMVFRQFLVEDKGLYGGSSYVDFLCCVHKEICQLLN


Target: T1, Sec24d (lacking residues 1-266)

Binder	binding result
DVAIDMMDP [syntaxin 5 peptide 188DVAIDMMDP196]	binds
TTIPMDE [membrin peptide 116TTIPMDE122]	binds
